Columns and labels:
[1] = biological target: full-length Spike of SARS-CoV-2 (UniProtKB-P0DTC2) expressed on 293T cells (SARS-CoV-2, UniProt P0DTC2); assay: flow cytometry on cells
[2] = biological target: Spike of the SARS-CoV-2 Omicron (BA.1) variant expressed on 293T cells (SARS-CoV-2, Omicron BA.1, strain); assay: flow cytometry on cells

B1: Ab188 recombinant monoclonal antibody (IgG) (antibody, V domains shown)
VH: EVQLVESGGGLVQPGGSLRLSCAASGFTFINYKMNWVRQAPGKGLEWVSYISSGSDAIYYADSVKGRFTISRDNAKNSLYLQMNSLRDEDTALYYCARGGGYNYGECMDVWGQGTTVTVSS
VL: not shown
- binding result [1]: binds
- binding result [2]: binds

B2: Ab445 recombinant monoclonal antibody (IgG) (antibody, V domains shown)
VH: EVQLVESGGGVVQPGTSPRLSCAASGFTFSNSGMHWVRQAPGKGLEWVAVIWYDGSKKYYVDSVKGRFTISRDNSKNTLYLQMNSLRAEDTAVYYCARDGTVAVRGVMNPFFDYWGQGTLVTVSS
VL: DIQLTQSPSSLSASVGDRVTITCQASQDISNYLNWYQQIPGKAPKLLIYDASNLETGVPSRFSGSGSGTDFTFTISSLQPEDIATYYCQQYDNLPYTFGQGTKLEIK
- binding result [1]: binds

B3: Ab354 recombinant monoclonal antibody (IgG) (antibody, V domains shown)
VH: QVQLVQSGAEVKKPGASVTVSCKASGFLFTGYYMHWVRQAPGQGLEWMGWINPNSGASNYTRKFQGRVTMTRDTSISATYMKLSRLTSDDTAVYYCARDLAFSMVRGALDYWGQGTLVTVSS
VL: QLVLTQPPSASGSPGQSVTISCTGTSSDVGGYNYVSWYQHHPGKAPKLMIYEVSKRPSGVPDRFSGSKSGNTASLTVSGLQAEDEADYYCNSYAGNNNWVFGTGTKVTVL
- binding result [1]: binds

B4: Ab496 recombinant monoclonal antibody (IgG) (antibody, V domains shown)
VH: EVQLVQSGPEVKKPGTSVKVSCKASGFIFTNSAVQWVRQARGQRLEWIGWIVVGSGNPNYAQKFQERVTITRDRSTSTAYMELSSLTSEDTAVYYCAAFPYYYDNSGSGPWGQGTLVTVSS
VL: DIQLTQSPSSLSASVGDRVTITCQASQDIRNNLNWYQQIPGKAPKLLIYDASNLETGVPSRFSGSASGTDFTFTISSLQPEDVATYYCQQYANLPPFTFGPGTKVDIK
- binding result [1]: binds

B5: Ab326 recombinant monoclonal antibody (IgG) (antibody, V domains shown)
VH: EVQLVESGGGVVQPGRSLRLSCAASGFTFSHYPMHWVRQAPGRGLEWVAVISYDGSNQHYVDSVKGRFTISRDNSKNTLYLQMNSLRAEDTAVYFCASLITMIRGVPDYWGQGTLVTVSS
VL: DIQMTQSPSSLSASVGDRVTITCRASQSISNYLNWYQQKPGKAPNLLIFAASSLQSGVPSRFSGSGSGTEFTLTISSLQPEDFAAYYCLQTYSTPRTFGQGTRLEIK
- binding result [1]: binds

B6: Ab159 recombinant monoclonal antibody (IgG) (antibody, V domains shown)
VH: QVQLVESGGGLVKPGGSLRLSCAASGFTFNNAWMSWVRQAPGKGLEWVGRIKSKTDGGTTDYAAPVKGRFTFSRDDSKNTLYLQMSSLKTEDTALYYCTTADYDILTGTPASPYWGQGTLVTVSS
VL: DIQMTQSPSSLSASVGDRVTITCRASQSITNYLNWYQQKPGKAPKFLIYAASSLQGGVPSRFRGSGSGTDFTLTISSLQPEDFATYYCQQTYSTLWTFGQGTKVEIK
- binding result [1]: binds
